According to patent US20200079861A1 (AGENUS, published 2020):

Legend:
[1] = target: T1, V1M/Q62P/S63G cynomolgus GITR (on 1624-5 cells) (cynomolgus, UniProt Q9Y5U5 26-241 (human entry)); test: flow cytometry on 1624-5 cells, 2 µg/ml antibody
T1 construct: V1M lies in the signal peptide; also called mutant cynomolgus GITR V1M/Q62P/S63G
T1 chain: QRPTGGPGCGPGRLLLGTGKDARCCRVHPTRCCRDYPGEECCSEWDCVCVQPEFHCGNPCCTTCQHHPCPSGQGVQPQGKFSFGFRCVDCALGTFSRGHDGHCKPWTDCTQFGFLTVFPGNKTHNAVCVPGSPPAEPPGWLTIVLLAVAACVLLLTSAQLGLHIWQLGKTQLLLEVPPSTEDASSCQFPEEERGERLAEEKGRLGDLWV
Method: (§1) After washing, the cells were incubated with a secondary anti-IgG antibody if necessary for detection (APC conjugated; BD Cat no. 109-136-097) diluted in 100 μl FACS buffer (PBS+2% FCS) for 20 min at 4° C. The cells were then washed and acquired using a flow cytometer (BD Biosciences). The mean fluorescence intensity (MFI) value of the tested monoclonal antibody was divided by the MFI value of the polyclonal antibody, generating an MFI ratio (monoclonal antibody/polyclonal antibody) for individual GITR alanine mutants. An average MFI ratio (“AMFI ratio”) was calculated based on the individual MFI ratios for all the mutants. […] An individual MFI ratio that is between 30% and 60% of the AMFI ratio is represented by “+/−” in FIG. 10A. An individual MFI ratio that is below 30% of the AMFI ratio is represented by “−” in FIG. 10A.
(§2) As further evidence for the binding characteristics of the anti-GITR antibodies, the binding of the antibodies to cynomolgus GITR was compared. The immature protein of cynomolgus GITR comprises the amino acid sequence of SEQ ID NO:44.

[2] = target: T2, human GITR G63A mutant (on 1624-5 cells) (human, UniProt Q9Y5U5 26-241); test: flow cytometry on 1624-5 cells, 2 µg/ml antibody, MFI ratio to polyclonal antibody, mutant versus wild type
T2 chain: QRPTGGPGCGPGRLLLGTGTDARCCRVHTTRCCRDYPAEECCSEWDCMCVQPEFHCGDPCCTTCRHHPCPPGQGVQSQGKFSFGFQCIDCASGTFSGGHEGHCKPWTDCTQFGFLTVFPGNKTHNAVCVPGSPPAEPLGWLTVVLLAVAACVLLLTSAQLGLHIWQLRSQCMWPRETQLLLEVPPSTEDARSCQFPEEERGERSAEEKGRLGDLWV
Method: (§3) An average MFI ratio (“AMFI ratio”) was calculated based on the individual MFI ratios for all the mutants. […] An individual MFI ratio that is between 30% and 60% of the AMFI ratio is represented by “+/−” in FIG. 10A. An individual MFI ratio that is below 30% of the AMFI ratio is represented by “−” in FIG. 10A.
(§4) All the mean fluorescence intensity (MFI) values were calculated as the mean of two measurements.

[3] = target: T3, human GITR (on cells) (human, UniProt Q9Y5U5 26-241); test: flow cytometry on Jurkat cells expressing GITR only
T3 construct: Swiss-Prot Q9Y5U5-1 is printed; also called huGITR; wild type human GITR
T3 sequence: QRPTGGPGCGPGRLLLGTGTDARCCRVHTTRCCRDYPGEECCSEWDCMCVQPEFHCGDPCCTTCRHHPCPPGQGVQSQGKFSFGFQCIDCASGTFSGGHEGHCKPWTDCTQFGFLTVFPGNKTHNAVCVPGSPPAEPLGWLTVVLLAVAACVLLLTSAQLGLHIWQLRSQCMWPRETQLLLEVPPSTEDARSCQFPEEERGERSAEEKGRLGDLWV
Method: (§5) Hut102 cells (human T cell lymphoma, ATCC) were incubated for 72 hours in RPMI media, supplemented with 1 μg/ml phytohaemagglutinin (PHA) and 10% heat-inactivated FBS, at 37° C. and 5% CO₂ to induce GITR and OX40 expression. Cells ectopically expressing GITR or OX40 were generated by transduction of lentiviral vectors (EF1a promoter) into Jurkat cells. Stable clones were generated via single-cell sorting (FACS ARIA Fusion). Expression was verified by flow cytometry. For binding analysis, stable Jurkat cells or activated Hut102 cells were incubated with test antibodies (12-point dose titration, 0.01-10,000 ng/ml) diluted in FACS buffer (PBS, 2 mM EDTA, 0.5% BSA, pH 7.2) for 30 minutes at 4° C. Samples were washed two times in FACS buffer and then incubated with APC-conjugated mouse anti-human kappa detection antibody (Life Technologies, HP6062) for 30 minutes at 4° C. Samples were then washed two times and analyzed using the LSRFortessa flow cytometer (BD Biosciences). FACS plots were analyzed using a combination of FACS DIVA and WEHI Weasel software. Data were plotted with Graphpad Prism software.

[4] = target: T4, GITR antigen (R&D systems, disulfide-linked homodimer; 689-GR) (human, UniProt Q9Y5U5 26-161, R-PE labeled in the suspension array assay; unlabeled and amine-coupled to the chip in SPR); test: Luminex suspension array, competitor at 20 µg/ml pre-incubated with R-PE labeled GITR antigen; captured antibody 231-32-15
T4 construct: also called R-PE labeled GITR antigen
T4 sequence (looked up): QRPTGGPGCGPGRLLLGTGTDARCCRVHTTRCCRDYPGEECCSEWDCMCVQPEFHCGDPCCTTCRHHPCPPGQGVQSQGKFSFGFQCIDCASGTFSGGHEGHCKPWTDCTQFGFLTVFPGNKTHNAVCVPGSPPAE
Method: (§6) The bead mixture and the antigen/antibody mixture were mixed 1:1 (20 μl from each) and incubated for one additional hour under shaking conditions (20° C., 650 rpm). Directly before the measurement, 40 μl of assay buffer was added to each well and analysis was performed using a Luminex® 200 system (Millipore) and a readout of 100 beads in 48 μl sample volume. Binding was determined using the MFI values of the non-competed control (100% binding, only assay buffer as competing compound).

[5] = target: T5, V1M cynomolgus GITR (on 1624-5 cells) (cynomolgus, UniProt Q9Y5U5 26-241 (human entry)); test: flow cytometry on 1624-5 cells
T5 chain: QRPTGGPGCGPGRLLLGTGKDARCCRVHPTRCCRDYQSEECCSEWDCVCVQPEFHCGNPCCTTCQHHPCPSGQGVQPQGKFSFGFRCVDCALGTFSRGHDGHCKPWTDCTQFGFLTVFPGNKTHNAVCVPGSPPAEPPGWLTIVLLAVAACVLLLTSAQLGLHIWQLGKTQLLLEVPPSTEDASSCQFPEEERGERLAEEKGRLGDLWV
Method: as §1, §2

[6] = target: T6, human OX40 (on cells) (human, UniProt P43489 29-277); test: flow cytometry on Jurkat cells expressing OX40 only
T6 construct: also called huOX40; TNFRSF4
T6 sequence: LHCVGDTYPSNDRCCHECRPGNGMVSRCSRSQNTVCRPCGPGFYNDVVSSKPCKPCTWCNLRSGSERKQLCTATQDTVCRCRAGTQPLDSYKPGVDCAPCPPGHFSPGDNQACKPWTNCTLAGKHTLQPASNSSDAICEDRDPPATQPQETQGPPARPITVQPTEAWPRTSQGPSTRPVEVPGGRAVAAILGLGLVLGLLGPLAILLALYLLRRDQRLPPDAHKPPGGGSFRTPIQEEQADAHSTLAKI
Method: as §5

[7] = target: T7, human GITR D60A mutant (on 1624-5 cells) (human, UniProt Q9Y5U5 26-241); test: flow cytometry on 1624-5 cells, 2 µg/ml antibody, MFI ratio to polyclonal antibody, mutant versus wild type
T7 chain: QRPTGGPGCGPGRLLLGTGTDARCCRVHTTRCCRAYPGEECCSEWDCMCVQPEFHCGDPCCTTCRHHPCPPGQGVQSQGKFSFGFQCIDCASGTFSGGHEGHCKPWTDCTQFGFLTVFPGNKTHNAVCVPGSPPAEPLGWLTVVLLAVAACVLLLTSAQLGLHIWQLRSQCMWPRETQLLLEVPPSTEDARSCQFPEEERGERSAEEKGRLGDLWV
Method: as §3, §4

[8] = target: T4, GITR antigen (R&D systems, …); test: SPR (BIAcore), GITR antigen immobilized on the chip, antibody at 300 nM
Method: Flow cell 2 contained GITR antigen in low density (667 RU), medium density was assessed in flow cell 3 (1595 RU) and in flow cell 4, high density was achieved (4371 RU). In flow cell 1, ovalbumin (1289 RU, Pierce ThermoFisher 77120) was immobilized for reference. Immobilization was performed according to a standard protocol from the manufacturer (GE Healthcare) for amine coupling (activation of surface with 0.4 M EDC and 0.1 M NHS, GE Healthcare Amine coupling kit, BR-1000-50). […] Afterwards anti-GITR antibodies were run through the different surfaces at a concentration of 300 nM (45 μg/ml) for 240 seconds at 5 μl/min. […] A dissociation time of 60 seconds was included before adding the competing antibody (300 nM, 5 μl/min).

[9] = target: T4, GITR antigen (R&D systems, …); test: Luminex suspension array, m6C8 captured on beads, R-PE labeled GITR antigen; data not shown
Method: as §6

B1: pab1876 (antibody, human IgG1, V domains shown)
VH: QVQLVQSGAEVKKPGASVKVSCKGSGYTFTDYAMYWVRQAPGQGLEWIGVIRTYSGDVTYNQKFKDRATMTVDKSISTAYMELSRLRSDDTAVYYCAKSGTVRGFAYWGQGTLVTVSS
VL: DIVMTQSPDSLAVSLGERATINCKSSQSLLNSGNQKNYLTWYQQKPGQPPKLLIYWASTRESGVPDRFSGSGSGTDFTLTISSLQAEDVAVYHCQNDYSYPYTFGQGTKLEIKR
notes: also called bivalent monospecific antibody pab1876; pab1876w (same chains without light chain T109S)
binding result [1]: binds
percentage of reduction in binding relative to wild type GITR [2]: 59%
binding result [3]: binds
binding result [4]: binds
binding result [5]: no binding (tested: 2 µg/ml)

B2: pab1875 (antibody, V domains shown)
VH: QVQLVQSGAEVKKPGASVKVSCKGSGYTFTDYAMYWVRQAPGQGLEWIGVIRTYSGDVTYNQKFKDRATMTVDKSISTAYMELSRLRSDDTAVYYCAKSGTVRGFAYWGQGTLVTVSS
VL: DIVMTQSPPTLSLSPGERVTLSCKSSQSLLNSGNQKNYLTWYQQKPGQAPRLLIYWASTRESGIPARFSGSGSGTDFTLTISSLQPEDFAVYHCQNDYSYPYTFGQGTKLEIK
binding result [4]: binds

B3: pab2049 (antibody, human IgG1, V domains shown)
VH: EVQLVESGGGLVQPGGSLKLSCAASGFTFSGSAMHWVRQASGKGLEWVGRIRSKANSYATAYAASVKGRFTISRDDSKNTAYLQMNSLKTEDTAVYYCTSGIYDSSGYDYWGQGTLVTVSS
VL: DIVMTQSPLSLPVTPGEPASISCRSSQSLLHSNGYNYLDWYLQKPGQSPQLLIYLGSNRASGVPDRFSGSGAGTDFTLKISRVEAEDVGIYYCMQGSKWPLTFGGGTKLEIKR
notes: also called bivalent monospecific antibody pab2049; pab2049w (same chains without light chain T109S)
binding result [6]: binds

B4: chimeric parental 231-32-15 antibody (antibody, V domains shown)
VH: QVQLLQSGTELVRPGVSVKISCKGSGYTFTDYAMYWVKQSHAKSLEWIGVIRTYSGDVTYNQKFKDKATMTVDKSSSIAYMELARLSSEDSAIYYCAKSGTVRGFAYWGQGTLVTVSS
VL: DIVMTQSPSSLTVTAGEKVIMSCKSSQSLLNSGNQKNYLTWYQQKPGQPPKLLIYWASTRESGVPDRFTGSGSGTDFTLTISSVQAEDLAVYHCQNDYSYPYTFGGGTKLEIK
notes: Chimeric antibody
binding result [1]: binds
percentage of reduction in binding relative to wild type GITR [2]: 37%
percentage of reduction in binding relative to wild type GITR [7]: 82%
binding result [8]: binds
binding result [5]: no binding (tested: 2 µg/ml)

B5: m6C8 (antibody, V domains shown)
VH: QVTLKESGPGILKPSQTLSLTCSFSGFSLSTSGMGVGWIRQPSGKGLEWLAHIWWDDDKYYNPSLKSQLTISKDTSRNQVFLKITSVDTADAATYYCARTRRYFPFAYWGQGTLVTVSS
VL: DIVMTQSQKFMSTSVGDRVSVTCKASQNVGTNVAWYQQKPGQSPKALIYSASYRYSGVPDRFTGSGSGTDFTLTINNVHSEDLAEYFCQQYNTDPLTFGAGTKLEIK
notes: Generated from the variable regions of antibody 6C8 of WO 2006/105021; also called murine antibody 6C8
percentage of increase in binding relative to wild type GITR [2]: 62%
percentage of reduction in binding relative to wild type GITR [7]: 10%
binding result [9]: binds
